Legend:
ヒトCLDN6タンパク質 = target: T1, ヒトCLDN6タンパク質 (human, UniProt P56747 1-220); test: immunohistochemistry on paraffin sections of HEK293T cells expressing the CLDN
T1 construct: whole, on cells; Expressed with Venus in HEK293T cells; formalin-fixed paraffin sections of cell pellets
T1 sequence (looked up): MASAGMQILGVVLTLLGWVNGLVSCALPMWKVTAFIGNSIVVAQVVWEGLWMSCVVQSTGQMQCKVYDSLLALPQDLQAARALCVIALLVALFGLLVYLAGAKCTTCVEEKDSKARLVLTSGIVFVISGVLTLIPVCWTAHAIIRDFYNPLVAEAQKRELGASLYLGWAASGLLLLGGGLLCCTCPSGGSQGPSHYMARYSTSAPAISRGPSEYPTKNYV

ヒトCLDN5タンパク質 = target: T2, ヒトCLDN5タンパク質 (human, UniProt O00501 1-218); test: as above
T2 construct: whole, on cells; Expressed with Venus in HEK293T cells; formalin-fixed paraffin sections of cell pellets
T2 sequence (looked up): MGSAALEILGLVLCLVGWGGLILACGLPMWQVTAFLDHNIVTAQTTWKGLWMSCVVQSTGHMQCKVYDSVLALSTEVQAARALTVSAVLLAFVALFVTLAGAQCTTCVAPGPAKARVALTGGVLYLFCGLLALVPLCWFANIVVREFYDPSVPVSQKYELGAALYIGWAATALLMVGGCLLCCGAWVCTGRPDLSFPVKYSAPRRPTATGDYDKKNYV

ヒトCLDN4タンパク質 = target: T3, ヒトCLDN4タンパク質 (human, UniProt O14493 1-209); test: as above
T3 construct: whole, on cells; Expressed with Venus in HEK293T cells; formalin-fixed paraffin sections of cell pellets
T3 sequence (looked up): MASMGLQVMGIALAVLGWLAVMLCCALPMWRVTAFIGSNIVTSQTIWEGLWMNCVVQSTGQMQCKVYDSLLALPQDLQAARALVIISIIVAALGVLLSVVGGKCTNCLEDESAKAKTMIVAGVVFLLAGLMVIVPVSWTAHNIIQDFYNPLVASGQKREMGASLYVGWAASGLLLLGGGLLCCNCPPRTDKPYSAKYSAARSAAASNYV

ヒトCLDN1タンパク質 = target: T4, ヒトCLDN1タンパク質 (human, UniProt O95832 1-211); test: as above
T4 construct: whole, on cells; Expressed with Venus in HEK293T cells; formalin-fixed paraffin sections of cell pellets
T4 sequence (looked up): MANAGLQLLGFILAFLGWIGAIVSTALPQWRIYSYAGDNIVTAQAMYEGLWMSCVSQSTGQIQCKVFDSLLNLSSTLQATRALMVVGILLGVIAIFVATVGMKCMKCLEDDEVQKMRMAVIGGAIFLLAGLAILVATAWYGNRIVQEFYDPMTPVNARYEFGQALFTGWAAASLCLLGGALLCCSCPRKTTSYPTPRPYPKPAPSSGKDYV

ヒトCLDN9タンパク質 = target: T5, ヒトCLDN9タンパク質 (human, UniProt O95484 1-217); test: as above
T5 construct: whole, on cells; Expressed with Venus in HEK293T cells; formalin-fixed paraffin sections of cell pellets; also called CLDN9
T5 sequence (looked up): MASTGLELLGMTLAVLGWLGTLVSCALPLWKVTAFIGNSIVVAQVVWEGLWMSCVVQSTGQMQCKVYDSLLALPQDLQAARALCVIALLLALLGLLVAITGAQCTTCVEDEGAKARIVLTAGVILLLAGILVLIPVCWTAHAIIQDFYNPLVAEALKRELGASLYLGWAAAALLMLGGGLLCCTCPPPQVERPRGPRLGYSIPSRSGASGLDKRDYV

ヒトCLDN15タンパク質 = target: T6, ヒトCLDN15タンパク質 (human, UniProt P56746 1-228); test: immunohistochemistry on paraffin sections of CLDN-expressing cell pellets and of patients' malignant pleural mesothelioma tissue
T6 construct: Expressed in HEK293T cells from a plasmid that also expresses Venus; 228 residues, four-pass membrane protein; also called クローディン15; WT
T6 sequence: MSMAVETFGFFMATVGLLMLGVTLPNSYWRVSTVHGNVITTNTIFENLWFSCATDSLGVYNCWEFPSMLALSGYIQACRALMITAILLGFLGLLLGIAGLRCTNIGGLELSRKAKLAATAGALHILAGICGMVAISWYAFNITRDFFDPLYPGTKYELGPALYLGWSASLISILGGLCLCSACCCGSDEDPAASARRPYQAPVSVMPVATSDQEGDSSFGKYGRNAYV

- binding result (ヒトCLDN6タンパク質): no binding
- binding result (ヒトCLDN5タンパク質): no binding
- binding result (ヒトCLDN4タンパク質): no binding
- binding result (ヒトCLDN1タンパク質): no binding
- binding result (ヒトCLDN9タンパク質): no binding
- binding result (ヒトCLDN15タンパク質): binds
B1: ラット抗ヒトCLDN15モノクローナル抗体クローン2C11 (antibody, V domains shown)
VH: AVQLVESGGGLVQPKESLKISCAASGFTFSNAAMYWVRQAPGKGLEWVARIRTKPNNYATYYADSVKGRFTISRDDSKSMVYLQMDNLKTEDSAMYYCTAPAYYFGYWGQGVMVTVSS
VL: DVVLTQTPPTLSATIGQSVSISCRSSQSLLHSNGNTYLHWLLQRPGQSPQLLIYLVSRLESGVPNRFSGSGSGTDFTLKISGVEAEDLGVYYCVQGTHAPWTFGGGTKLELK
notes: Rat monoclonal antibody from a hybridoma, used as culture supernatant and detected with anti-rat IgG-HRP; also called 2C11抗体; 抗CLDN15モノクローナル抗体(2C11)
